The values below come from patent US20140072613A1, “Compositions and Methods for Treating Cutaneous Scarring” (priority 2012, published 2014).

Some targets named below: CaMKIV(h) (human) (UniProt Q16566); HIPK3(h) (human) (UniProt Q9H422); MSK2(h) (human) (UniProt O75676); MSSK1(h) (human) (UniProt Q9UPE1); PAK5(h) (human) (UniProt Q9P286); PASK(h) (human) (UniProt Q96RG2); PDGFRα(D842V)(h) (human) (UniProt P16234); PRK2(h) (human) (UniProt Q16513); ROCK-I(h) (human) (UniProt Q13464); TrkA(h) (human) (UniProt P04629); cSRC(h) (human) (UniProt P12931).

Common to all, as to experiment: cell-based or functional assay
The target of a further experiment is T1, EphA5(h) (human) (UniProt P54756).
T1 sequence (looked up): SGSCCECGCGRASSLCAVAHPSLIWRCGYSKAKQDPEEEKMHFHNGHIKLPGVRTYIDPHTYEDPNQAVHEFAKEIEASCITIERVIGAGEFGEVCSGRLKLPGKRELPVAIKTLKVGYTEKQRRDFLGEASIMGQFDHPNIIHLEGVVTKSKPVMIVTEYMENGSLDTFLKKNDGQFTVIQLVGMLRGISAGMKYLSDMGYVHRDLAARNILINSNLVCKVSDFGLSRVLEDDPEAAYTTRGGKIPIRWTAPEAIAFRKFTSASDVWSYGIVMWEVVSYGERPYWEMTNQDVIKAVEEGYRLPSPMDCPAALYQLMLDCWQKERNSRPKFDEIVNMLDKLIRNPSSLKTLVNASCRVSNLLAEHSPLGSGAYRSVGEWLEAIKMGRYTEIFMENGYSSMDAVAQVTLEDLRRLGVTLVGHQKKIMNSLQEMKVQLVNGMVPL

Another experiment has as its target T2, Haspin(h) (human) (UniProt Q8TF76).
T2 sequence (looked up): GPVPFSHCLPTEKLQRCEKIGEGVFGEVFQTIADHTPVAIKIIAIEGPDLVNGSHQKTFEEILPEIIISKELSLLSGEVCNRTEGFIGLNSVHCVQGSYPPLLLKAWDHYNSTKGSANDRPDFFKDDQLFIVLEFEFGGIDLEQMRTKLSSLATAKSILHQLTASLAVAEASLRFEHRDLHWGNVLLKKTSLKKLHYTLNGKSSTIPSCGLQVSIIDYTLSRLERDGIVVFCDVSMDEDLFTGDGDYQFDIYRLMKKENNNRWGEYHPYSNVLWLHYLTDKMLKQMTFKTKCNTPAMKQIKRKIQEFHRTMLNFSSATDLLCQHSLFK

Another experiment has as its target T3, PKD2(h) (human) (UniProt Q9BZL6).
T3 sequence (looked up): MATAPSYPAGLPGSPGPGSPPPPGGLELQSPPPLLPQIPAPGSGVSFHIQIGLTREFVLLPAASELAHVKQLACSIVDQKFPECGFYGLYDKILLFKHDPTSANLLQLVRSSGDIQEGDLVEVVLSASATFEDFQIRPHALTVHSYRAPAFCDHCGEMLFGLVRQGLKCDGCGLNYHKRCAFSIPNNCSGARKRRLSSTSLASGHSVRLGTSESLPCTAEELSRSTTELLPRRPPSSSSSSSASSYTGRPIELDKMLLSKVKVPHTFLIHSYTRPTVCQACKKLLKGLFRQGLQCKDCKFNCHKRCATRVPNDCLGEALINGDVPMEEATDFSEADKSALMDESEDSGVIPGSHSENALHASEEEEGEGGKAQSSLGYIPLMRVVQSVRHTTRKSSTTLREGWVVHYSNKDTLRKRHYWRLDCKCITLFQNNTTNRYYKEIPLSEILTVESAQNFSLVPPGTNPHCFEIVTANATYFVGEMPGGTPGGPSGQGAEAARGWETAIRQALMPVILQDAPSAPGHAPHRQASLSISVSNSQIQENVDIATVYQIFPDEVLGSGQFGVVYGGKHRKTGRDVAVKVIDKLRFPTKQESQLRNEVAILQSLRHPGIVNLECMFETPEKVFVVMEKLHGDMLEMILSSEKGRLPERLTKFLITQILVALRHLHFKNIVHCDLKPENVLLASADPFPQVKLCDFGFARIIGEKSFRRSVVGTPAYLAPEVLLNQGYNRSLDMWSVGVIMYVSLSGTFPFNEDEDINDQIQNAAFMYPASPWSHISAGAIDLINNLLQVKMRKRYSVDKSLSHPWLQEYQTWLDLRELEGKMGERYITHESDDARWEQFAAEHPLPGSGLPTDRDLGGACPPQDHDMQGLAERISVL

For another experiment, the target named is T4, Ret(V804M)(h) (human) (UniProt P07949).
T4 sequence (looked up): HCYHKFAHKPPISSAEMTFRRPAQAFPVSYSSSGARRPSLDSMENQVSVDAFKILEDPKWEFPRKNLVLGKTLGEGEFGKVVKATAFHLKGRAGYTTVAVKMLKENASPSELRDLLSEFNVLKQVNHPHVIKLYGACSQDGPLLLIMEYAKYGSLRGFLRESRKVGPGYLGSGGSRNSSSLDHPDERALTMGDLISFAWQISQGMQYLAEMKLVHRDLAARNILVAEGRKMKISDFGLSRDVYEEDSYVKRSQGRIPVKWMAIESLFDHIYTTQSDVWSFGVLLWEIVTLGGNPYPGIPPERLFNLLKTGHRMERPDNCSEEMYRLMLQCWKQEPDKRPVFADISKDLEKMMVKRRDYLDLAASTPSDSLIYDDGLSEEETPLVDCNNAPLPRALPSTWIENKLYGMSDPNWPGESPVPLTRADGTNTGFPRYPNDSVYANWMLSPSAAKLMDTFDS

Chain of PRK2(h) (human) (Q16513 501-984 limits assumed): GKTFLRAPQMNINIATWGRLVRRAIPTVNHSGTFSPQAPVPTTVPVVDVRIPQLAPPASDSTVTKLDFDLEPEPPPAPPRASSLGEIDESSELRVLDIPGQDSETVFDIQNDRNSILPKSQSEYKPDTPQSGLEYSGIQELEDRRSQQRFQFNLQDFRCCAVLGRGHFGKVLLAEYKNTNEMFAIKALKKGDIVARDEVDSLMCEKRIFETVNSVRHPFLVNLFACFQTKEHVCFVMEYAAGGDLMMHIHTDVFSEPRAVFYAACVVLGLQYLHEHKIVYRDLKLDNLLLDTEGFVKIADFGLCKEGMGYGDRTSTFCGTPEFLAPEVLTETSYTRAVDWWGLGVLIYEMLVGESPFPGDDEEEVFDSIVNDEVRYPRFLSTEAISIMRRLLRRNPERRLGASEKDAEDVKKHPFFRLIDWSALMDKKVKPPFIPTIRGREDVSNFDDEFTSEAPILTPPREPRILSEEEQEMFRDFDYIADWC
Chain of PASK(h) (human) (Q96RG2 879-1323 limits assumed): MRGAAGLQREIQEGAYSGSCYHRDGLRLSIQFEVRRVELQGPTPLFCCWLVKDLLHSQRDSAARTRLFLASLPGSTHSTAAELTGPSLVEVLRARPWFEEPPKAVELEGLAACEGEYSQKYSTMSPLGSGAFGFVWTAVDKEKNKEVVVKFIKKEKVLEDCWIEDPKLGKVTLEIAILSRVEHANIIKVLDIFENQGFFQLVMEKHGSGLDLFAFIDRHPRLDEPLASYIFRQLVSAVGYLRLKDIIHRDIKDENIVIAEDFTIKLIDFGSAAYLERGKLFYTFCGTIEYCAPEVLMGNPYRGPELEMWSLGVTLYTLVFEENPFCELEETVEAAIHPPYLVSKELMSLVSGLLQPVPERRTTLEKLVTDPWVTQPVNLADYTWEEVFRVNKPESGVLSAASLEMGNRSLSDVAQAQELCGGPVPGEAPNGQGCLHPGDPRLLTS
Chain of MSSK1(h) (human) (Q9UPE1 whole entry): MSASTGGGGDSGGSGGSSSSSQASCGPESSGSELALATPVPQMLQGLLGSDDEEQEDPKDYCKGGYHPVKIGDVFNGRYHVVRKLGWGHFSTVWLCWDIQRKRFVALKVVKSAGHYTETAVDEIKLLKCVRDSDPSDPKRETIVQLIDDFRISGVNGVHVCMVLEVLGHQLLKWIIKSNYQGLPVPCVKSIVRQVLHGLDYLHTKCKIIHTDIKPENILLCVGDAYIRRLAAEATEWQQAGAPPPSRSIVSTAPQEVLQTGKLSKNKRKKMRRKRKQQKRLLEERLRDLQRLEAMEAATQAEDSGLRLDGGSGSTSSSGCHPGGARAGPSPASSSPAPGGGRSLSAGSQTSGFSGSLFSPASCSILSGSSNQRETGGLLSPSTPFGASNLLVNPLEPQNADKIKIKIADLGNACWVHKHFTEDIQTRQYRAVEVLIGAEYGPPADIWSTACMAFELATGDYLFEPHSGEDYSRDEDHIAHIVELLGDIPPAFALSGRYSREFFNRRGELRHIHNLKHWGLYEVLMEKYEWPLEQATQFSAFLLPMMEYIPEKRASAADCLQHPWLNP
Chain of HIPK3(h) (human) (Q9H422 163-562 limits assumed): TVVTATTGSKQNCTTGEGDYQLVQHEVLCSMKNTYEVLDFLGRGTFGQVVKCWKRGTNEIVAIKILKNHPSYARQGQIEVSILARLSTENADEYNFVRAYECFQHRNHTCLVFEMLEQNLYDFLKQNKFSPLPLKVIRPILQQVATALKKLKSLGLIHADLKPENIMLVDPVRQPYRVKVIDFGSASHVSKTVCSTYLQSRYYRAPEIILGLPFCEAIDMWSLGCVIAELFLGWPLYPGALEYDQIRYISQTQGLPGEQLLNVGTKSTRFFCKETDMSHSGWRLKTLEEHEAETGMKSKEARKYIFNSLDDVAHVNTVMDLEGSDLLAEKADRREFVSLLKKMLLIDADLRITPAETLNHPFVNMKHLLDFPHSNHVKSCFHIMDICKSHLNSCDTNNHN
Chain of MSK2(h) (human) (O75676 whole entry): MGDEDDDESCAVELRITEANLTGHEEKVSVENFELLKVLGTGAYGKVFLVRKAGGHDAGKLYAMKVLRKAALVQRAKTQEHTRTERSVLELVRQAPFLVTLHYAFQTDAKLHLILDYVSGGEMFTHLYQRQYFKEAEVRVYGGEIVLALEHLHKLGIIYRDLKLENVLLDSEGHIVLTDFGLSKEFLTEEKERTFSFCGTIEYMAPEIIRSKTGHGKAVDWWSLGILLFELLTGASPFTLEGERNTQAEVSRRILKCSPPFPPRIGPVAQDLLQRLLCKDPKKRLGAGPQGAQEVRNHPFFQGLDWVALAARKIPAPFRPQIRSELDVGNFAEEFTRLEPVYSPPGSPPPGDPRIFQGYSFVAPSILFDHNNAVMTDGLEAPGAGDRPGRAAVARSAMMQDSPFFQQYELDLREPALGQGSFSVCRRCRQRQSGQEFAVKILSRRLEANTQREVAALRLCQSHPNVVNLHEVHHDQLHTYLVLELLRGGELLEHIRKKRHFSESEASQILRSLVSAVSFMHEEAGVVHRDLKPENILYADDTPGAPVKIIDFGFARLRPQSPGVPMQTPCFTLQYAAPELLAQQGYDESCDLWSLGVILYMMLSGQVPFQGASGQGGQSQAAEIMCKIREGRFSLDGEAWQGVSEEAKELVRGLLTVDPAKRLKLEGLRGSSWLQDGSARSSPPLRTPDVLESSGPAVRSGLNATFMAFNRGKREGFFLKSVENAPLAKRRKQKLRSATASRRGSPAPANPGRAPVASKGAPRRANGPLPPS
Chain of CaMKIV(h) (human) (Q16566 whole entry): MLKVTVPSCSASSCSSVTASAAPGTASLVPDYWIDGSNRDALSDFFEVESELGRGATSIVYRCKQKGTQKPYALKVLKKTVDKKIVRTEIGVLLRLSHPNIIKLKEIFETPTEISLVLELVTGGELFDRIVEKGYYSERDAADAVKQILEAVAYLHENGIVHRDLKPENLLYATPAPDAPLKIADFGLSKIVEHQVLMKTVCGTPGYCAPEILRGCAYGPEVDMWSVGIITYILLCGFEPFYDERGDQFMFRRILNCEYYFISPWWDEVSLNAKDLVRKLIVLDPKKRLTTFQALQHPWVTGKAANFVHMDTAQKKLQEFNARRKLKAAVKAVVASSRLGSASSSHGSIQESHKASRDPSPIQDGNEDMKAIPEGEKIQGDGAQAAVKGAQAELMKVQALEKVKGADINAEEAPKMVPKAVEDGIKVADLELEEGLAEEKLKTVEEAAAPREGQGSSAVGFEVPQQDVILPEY
Chain of PDGFRα(D842V)(h) (human) (P16234 550-1089 D842V limits assumed): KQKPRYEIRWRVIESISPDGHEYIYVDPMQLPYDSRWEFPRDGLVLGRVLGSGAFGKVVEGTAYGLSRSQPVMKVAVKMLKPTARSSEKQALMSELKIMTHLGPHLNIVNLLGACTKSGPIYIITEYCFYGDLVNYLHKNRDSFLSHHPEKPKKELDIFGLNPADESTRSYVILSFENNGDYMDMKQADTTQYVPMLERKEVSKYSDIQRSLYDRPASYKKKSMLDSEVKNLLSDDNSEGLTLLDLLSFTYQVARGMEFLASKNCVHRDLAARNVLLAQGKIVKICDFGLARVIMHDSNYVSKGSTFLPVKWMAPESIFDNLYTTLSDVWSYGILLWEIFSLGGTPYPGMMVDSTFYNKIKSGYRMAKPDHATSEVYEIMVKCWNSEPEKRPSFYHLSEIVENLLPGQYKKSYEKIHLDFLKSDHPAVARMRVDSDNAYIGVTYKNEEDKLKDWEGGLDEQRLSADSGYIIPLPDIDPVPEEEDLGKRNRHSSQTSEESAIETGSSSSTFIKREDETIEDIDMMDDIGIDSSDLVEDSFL
Chain of PAK5(h) (human) (Q9P286 whole entry): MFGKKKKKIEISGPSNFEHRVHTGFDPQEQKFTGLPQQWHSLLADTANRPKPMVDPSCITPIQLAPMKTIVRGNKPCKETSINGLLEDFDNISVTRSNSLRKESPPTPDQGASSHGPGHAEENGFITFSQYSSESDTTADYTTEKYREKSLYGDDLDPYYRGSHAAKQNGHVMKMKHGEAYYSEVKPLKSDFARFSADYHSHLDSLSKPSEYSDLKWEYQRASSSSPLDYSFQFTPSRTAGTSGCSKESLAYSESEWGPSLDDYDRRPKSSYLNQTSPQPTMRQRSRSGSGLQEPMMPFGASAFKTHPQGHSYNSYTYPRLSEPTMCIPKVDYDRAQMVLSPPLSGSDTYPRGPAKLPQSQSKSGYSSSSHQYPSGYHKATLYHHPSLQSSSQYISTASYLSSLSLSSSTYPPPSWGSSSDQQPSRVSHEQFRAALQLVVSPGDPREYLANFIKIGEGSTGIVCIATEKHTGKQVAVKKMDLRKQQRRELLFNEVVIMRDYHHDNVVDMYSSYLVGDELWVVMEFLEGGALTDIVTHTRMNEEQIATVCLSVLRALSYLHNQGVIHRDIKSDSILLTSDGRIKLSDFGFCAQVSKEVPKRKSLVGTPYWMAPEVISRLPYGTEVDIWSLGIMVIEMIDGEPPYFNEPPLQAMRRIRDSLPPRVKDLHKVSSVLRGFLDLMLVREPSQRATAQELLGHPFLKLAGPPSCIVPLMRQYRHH
Chain of ROCK-I(h) (human) (Q13464 17-535 limits assumed): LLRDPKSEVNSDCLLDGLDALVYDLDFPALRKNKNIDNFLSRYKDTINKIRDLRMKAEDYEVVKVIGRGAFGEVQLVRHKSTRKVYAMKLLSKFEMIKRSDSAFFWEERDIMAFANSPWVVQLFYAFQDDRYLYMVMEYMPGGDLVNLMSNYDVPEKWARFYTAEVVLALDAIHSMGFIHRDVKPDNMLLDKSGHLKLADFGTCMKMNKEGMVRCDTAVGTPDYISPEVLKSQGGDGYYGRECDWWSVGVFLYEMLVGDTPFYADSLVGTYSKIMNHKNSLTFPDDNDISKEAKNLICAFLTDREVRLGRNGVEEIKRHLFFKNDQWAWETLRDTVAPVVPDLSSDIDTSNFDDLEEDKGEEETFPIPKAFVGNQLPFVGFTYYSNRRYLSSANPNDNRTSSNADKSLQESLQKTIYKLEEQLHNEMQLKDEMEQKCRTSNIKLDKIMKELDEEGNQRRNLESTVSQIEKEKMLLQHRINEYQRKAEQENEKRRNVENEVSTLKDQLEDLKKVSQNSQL

As to MMI-0500 (peptide), the % activity, 100 µM was -1% in the experiment with CaMKIV(h) (human); 42% with EphA5(h) (human); 85% in the experiment with HIPK3(h) (human); 25% with Haspin(h) (human); 14% with MSK2(h) (human); 22% in the experiment with MSSK1(h) (human). In addition, the % activity, 100 µM with PAK5(h) (human) is 125%; with PASK(h) (human), 9%; in the experiment with PDGFRα(D842V)(h) (human) it was 170%; with PKD2(h) (human), 10%; with PRK2(h) (human), 7%; with ROCK-I(h) (human), 17%. Besides, the % activity, 100 µM with Ret(V804M)(h) (human) worked out at 36%; with TrkA(h) (human), 24%; with cSRC(h) (human), 30%.
